Patent US20200317768A1 (published 2020)
Substitutions are numbered along the chain they refer to. Numbers in names are those of the source.

T1: human FcγRIIaR extracellular domain, C-terminal His-tag (human, UniProt P12318 34-217)
T1 construct: also called human FcγRIIa (type R); FcgRIIaR; not shown: His-tag added to C-terminus
T1 chain: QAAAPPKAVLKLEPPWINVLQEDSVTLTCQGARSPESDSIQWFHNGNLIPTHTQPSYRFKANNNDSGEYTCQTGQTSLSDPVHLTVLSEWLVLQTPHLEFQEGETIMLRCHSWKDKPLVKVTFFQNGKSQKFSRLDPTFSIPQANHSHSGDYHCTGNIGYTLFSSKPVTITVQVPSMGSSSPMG

T2: human FcγRIIaH extracellular domain, C-terminal His-tag (human, UniProt P12318 34-217)
T2 construct: also called human FcγRIIa (type H); FcgRIIaH; not shown: His-tag added to C-terminus
T2 sequence: T1 chain with R134H

T3: cynomolgus monkey FcγRIIa1 extracellular domain, C-terminal His-tag (cynomolgus monkey)
T3 construct: also called cyno FcγRIIa1; cynoFcgRIIa1; not shown: His-tag added to C-terminus
T3 chain: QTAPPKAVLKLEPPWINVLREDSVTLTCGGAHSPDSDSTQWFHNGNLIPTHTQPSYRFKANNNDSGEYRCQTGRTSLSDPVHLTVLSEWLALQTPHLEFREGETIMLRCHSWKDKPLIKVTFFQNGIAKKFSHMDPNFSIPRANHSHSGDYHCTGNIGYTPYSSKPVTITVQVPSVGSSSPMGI

T4: cynomolgus monkey FcγRIIb extracellular domain, C-terminal His-tag (cynomolgus monkey)
T4 construct: also called cyno FcγRIIb; cynoFcγRIIb; not shown: His-tag added to C-terminus
T4 chain: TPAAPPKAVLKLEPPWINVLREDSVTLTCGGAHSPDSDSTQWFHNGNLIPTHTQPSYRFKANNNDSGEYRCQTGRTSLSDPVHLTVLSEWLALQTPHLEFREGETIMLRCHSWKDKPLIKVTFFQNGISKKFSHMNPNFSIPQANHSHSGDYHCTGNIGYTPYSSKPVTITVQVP

T5: human FcγRIIb extracellular domain, C-terminal His-tag (human, UniProt P31994 43-217)
T5 construct: also called humanFcgRIIb; not shown: His-tag added to C-terminus
T5 sequence: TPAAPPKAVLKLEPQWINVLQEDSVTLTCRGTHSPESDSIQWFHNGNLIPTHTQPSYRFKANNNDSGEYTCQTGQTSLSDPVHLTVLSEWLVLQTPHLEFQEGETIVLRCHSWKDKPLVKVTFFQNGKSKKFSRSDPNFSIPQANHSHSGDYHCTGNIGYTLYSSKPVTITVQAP

B1: MS1032LO06-SG1 (M103205H795-SG1/M103202L889-SK1) (antibody, human IgG1, kappa)
heavy: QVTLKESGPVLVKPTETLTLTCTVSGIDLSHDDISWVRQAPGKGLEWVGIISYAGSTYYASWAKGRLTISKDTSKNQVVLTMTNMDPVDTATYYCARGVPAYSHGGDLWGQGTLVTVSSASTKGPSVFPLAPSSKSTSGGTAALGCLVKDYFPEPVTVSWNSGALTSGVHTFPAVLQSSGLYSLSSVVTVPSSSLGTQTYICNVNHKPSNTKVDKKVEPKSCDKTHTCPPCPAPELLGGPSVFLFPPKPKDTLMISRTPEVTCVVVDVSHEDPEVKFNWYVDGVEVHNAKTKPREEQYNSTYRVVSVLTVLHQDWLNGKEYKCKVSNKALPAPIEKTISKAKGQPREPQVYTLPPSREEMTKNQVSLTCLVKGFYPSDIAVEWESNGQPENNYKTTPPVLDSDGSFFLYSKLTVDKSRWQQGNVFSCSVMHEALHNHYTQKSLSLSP
light: DIVMTQSPATLSLSPGERATLSCTSSQSVYHANWLSWFQQKPGQPPKLLIYWASTLAYGVPSRFSGSGSGTDFTLTISSLQPEDAATYYCAGGYGGGRYAFGQGTKVEIKRTVAAPSVFIFPPSDEQLKSGTASVVCLLNNFYPREAKVQWKVDNALQSGNSQESVTEQDSKDSTYSLSSTLTLSKADYEKHKVYACEVTHQGLSSPVTKSFNRGEC
notes: Anti-latent myostatin antibody; Parent of the Fc variants; copies: 2 + 2
B2: M103205H795-MY201/M103202L889-SK1 (antibody, human IgG1, kappa)
heavy: QVTLKESGPVLVKPTETLTLTCTVSGIDLSHDDISWVRQAPGKGLEWVGIISYAGSTYYASWAKGRLTISKDTSKNQVVLTMTNMDPVDTATYYCARGVPAYSHGGDLWGQGTLVTVSSASTKGPSVFPLAPSSKSTSGGTAALGCLVKDYFPEPVTVSWNSGALTSGVHTFPAVLQSSGLYSLSSVVTVPSSSLGTQTYICNVNHKPSNTKVDKKVEPKSCDKTHTCPPCPAPELLNGPSVFLFPPKPKDTLMISRTPEVTCVVVDVSDEDPEVKFNWYVDGVEVHNAKTKPREEQYNSTYRVVSVLTVLHQDWLNGKEYKCKVSNKALPKPIEKTISKAKGQPREPQVYTLPPSREEMTKNQVSLTCLVKGFYPSDIAVEWESNGQPENNYKTTPPVLDSDGSFFLYSKLTVDKSRWQQGNVFSCSVMHEALHNHYTQKSLSLSP
light: B1 light
notes: Fc variant G236N/H268D/A330K (EU numbering) of SG1; also called MS1032LO06-MY201; copies: 2 + 2
B3: M103205H795-MY262/M103202L889-SK1 (antibody, human IgG1, kappa)
heavy: B2 heavy with N238V
light: B1 light
notes: copies: 2 + 2
B4: M103205H795-MY267/M103202L889-SK1 (antibody, human IgG1, kappa)
heavy: B2 heavy with N238I
light: B1 light
notes: copies: 2 + 2
B5: M103205H795-MY265/M103202L889-SK1 (antibody, human IgG1, kappa)
heavy: B2 heavy with N238T
light: B1 light
notes: copies: 2 + 2
B6: M103205H795-MY261/M103202L889-SK1 (antibody, human IgG1, kappa)
heavy: B2 heavy with N238H
light: B1 light
notes: copies: 2 + 2
B7: M103205H795-MY263/M103202L889-SK1 (antibody, human IgG1, kappa)
heavy: B2 heavy with N238Q
light: B1 light
notes: copies: 2 + 2
B8: M103205H795-MY260/M103202L889-SK1 (antibody, human IgG1, kappa)
heavy: B2 heavy with N238M
light: B1 light
notes: copies: 2 + 2
B9: M103205H795-MY264/M103202L889-SK1 (antibody, human IgG1, kappa)
heavy: B2 heavy with N238L
light: B1 light
notes: copies: 2 + 2
B10: MS_M103205H795-SG1/M103202L889-SK1 (antibody, human IgG1, kappa)
heavy: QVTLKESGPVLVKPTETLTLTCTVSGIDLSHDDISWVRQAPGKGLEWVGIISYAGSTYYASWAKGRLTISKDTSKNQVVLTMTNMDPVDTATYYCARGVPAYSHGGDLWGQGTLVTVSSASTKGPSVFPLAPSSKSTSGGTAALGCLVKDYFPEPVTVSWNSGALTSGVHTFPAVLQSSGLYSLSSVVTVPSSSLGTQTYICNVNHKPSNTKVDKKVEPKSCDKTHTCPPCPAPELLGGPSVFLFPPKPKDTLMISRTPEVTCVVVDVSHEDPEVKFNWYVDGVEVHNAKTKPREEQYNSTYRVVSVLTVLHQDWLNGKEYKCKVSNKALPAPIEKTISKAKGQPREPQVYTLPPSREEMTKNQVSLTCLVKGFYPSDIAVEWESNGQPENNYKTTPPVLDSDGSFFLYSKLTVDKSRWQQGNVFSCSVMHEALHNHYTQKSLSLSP
light: B1 light
notes: Parent antibody with SG1 human heavy chain constant region; also called MS1032LO06-SG1
B11: M103205H795-MY335 / M103202L889-SK1 (antibody, human IgG1, kappa)
heavy: B2 heavy with N238T, Q313R, D415K
light: B1 light
notes: CH with G236T/H268D/Q311R/A330K/D413K against SG1 (EU numbering); also called MS1032LO06-MY335
B12: M103205H795-MY205 / M103202L889-SK1 (antibody, human IgG1, kappa)
heavy: B2 heavy with Q297L
light: B1 light
notes: CH with G236N/H268D/Q295L/A330K against SG1 (EU numbering); also called MS1032LO06-MY205
B13: M103205H795-MY101 / M103202L889-SK1 (antibody, human IgG1, kappa)
heavy: B2 heavy with D270E, P398M
light: B1 light
notes: CH with G236N/H268E/A330K/P396M against SG1 (EU numbering); also called MS1032LO06-MY101
B14: M103205H795-MY344 / M103202L889-SK1 (antibody, human IgG1, kappa)
heavy: B2 heavy with Q297L, Q313R, D415K
light: B1 light
notes: CH with G236N/H268D/Q295L/Q311R/A330K/D413K against SG1 (EU numbering); also called MS1032LO06-MY344
B15: M103205H795-PK2 / M103202L889-SK1 (antibody, human IgG1, kappa)
heavy: B2 heavy with D270E, P398M, S402R, D415K
light: B1 light
notes: CH with G236N/H268E/A330K/P396M/S400R/D413K against SG1 (EU numbering); also called MS1032LO06-PK2; MS103205H795-PK2
B16: M103205H795-MY351 / M103202L889-SK1 (antibody, human IgG1, kappa)
heavy: B2 heavy with Q313R, D415K
light: B1 light
notes: CH with G236N/H268D/Q311R/A330K/D413K against SG1 (EU numbering); also called MS1032LO06-MY351
B17: M103205H795-MY201 / M103202L889-SK1 (antibody, human IgG1, kappa)
heavy: B2 heavy
light: B1 light
notes: CH with G236N/H268D/A330K against SG1 (EU numbering); also called MS1032LO06-MY201

The binders below were run against T6, cynomolgus monkey FcγRIIIaS extracellular domain, His-tagged (cynomolgus monkey, UniProt A3RFZ7 21-206 (rhesus entry)) (assay: SPR; KD of SG1 divided by KD of the variant).
T6 construct: also called cyno FcgRIIIaS; cynoFcγRIIIaS; not shown: His-tag added to the C-terminus
Protocol: (§1) Regarding such interactions, KD values were calculated using the following 1:1 binding model described in BIACORE® T100 Software Handbook BR1006-48 Edition AE.
(§2) The behavior of interacting molecules according to the 1:1 binding model on BIACORE® can be described by Equation 1: Req=C·R max/(KD+C)+RI, wherein, Req is a plot of steady-state binding levels to analyte concentration. C is concentration, RI is bulk refractive index contribution in the sample, and Rmax is analyte binding capacity of the surface. When this equation is rearranged, KD can be expressed as Equation 2: KD=C·Rmax/(Req−RI)−C. KD can be calculated by substituting the values of Rmax, RI, and C into Equation 1 or Equation 2. From the current measurement conditions, RI=0, C=2 μmol/L can be used.
(§3) The resultant variants were expressed using M103202L889-SK1 as light chain and their affinity to human and cynoFcγRs were evaluated (Table 21).
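Also: relative to parent M103205H795-SG1 carrying the SG1 human heavy chain constant region.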

T6 sequence (A3RFZ7 21-206): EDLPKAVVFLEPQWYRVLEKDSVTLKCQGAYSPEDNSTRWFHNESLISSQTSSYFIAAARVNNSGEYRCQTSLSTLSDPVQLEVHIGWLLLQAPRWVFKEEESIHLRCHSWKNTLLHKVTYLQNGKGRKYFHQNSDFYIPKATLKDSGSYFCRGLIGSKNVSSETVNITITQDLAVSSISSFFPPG

KD fold (SG1 = 1) [fold]	Binder
1	B1
0.06	B2
0.13	B3
0.13	B4
0.18	B5
0.15	B6
0.46	B7
0.55	B8
0.1	B9

What follows are binders tested against T7, human FcγRIIIaV extracellular domain, His-tagged (human, UniProt P08637 17-208) (assay: SPR; KD of SG1 divided by KD of the variant).
T7 construct: also called human FcgRIIIaV; not shown: His-tag added to the C-terminus
Protocol: as §1, §2, §3

T7 sequence (P08637 17-208 F176V): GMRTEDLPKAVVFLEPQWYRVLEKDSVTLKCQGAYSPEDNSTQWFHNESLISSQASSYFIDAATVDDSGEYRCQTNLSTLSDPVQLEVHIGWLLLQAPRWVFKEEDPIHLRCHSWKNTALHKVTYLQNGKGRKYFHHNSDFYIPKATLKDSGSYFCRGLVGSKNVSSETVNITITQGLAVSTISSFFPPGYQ

KD fold (SG1 = 1) [fold]	Binder
1	B1
0.03	B2
0.16	B3
0.05	B4
0.15	B5
0.07	B6
0.35	B7
0.27	B8
0.01	B9

Target: T1, human FcγRIIaR extracellular domain, …
Assay: SPR (BIACORE); KD of SG1 / KD of variant

KD fold (SG1 = 1) [fold]	Binder
1	B10
3.8	B11
0.8	B12
1.3	B13
0.9	B14
1	B15
0.7	B16
0.6	B17

Each binder was assayed against T2, human FcγRIIaH extracellular domain, … (assay: SPR (BIACORE); KD of SG1 / KD of variant).

KD fold (SG1 = 1) [fold]	Binder
1	B10
2.4	B11
1.5	B12
1.4	B13
1	B14
1.2	B15
0.7	B16
0.8	B17

Target: T3, cynomolgus monkey FcγRIIa1 …
Assay: SPR (BIACORE); KD of SG1 / KD of variant

KD fold (SG1 = 1) [fold]	Binder
1	B10
1.6	B11
3.6	B12
2.9	B13
3.6	B14
2.5	B15
3.5	B16
2.3	B17

Target: T4, cynomolgus monkey FcγRIIb extracellular …
Assay: SPR (BIACORE); KD of SG1 / KD of variant

KD fold (SG1 = 1) [fold]	Binder
1	B10
2.8	B11
7.2	B12
5.1	B13
5.8	B14
4.7	B15
5.1	B16
4.2	B17

The binders below were run against T5, human FcγRIIb extracellular domain, … (assay: SPR (BIACORE); KD of SG1 / KD of variant).

KD fold (SG1 = 1) [fold]	Binder
1	B10
2	B11
8.2	B12
9.4	B13
6.4	B14
7.8	B15
3.8	B16
4.2	B17

What follows are binders tested against T8, cynomolgus monkey FcγRIIIaS extracellular domain, C-terminal His-tag (cynomolgus monkey, UniProt A3RFZ7 21-206 (rhesus entry)) (assay: SPR (BIACORE); KD of SG1 / KD of variant).
T8 construct: also called cyno FcγRIIIaS; cynoFcγRIIIaS; not shown: His-tag added to C-terminus
T8 sequence (A3RFZ7 21-206): as the sequence (A3RFZ7 21-206) above

KD fold (SG1 = 1) [fold]	Binder
1	B10
0.24	B11
0.06	B12
0.11	B13
0.07	B14
0.09	B15
0.07	B16
0.06	B17
